# Source: IntAct's records for PubMed 29039417
# B1: Isoform 2 of Bardet-Biedl syndrome 7 protein (Homo sapiens), Q8IWZ6-2 (parent)
# chain: MDLILNRMDYLQVGVTSQKTMKLIPASRHRATQKVVIGDHDGVVMCFGMKKGEAAAVFKTLPGPKIARLELGGVINTPQEKIFIAAASEIRGFTKRGKQFLSFETNLTESIKAMHISGSDLFLSASYIYNHYCDCKDQHYYLSGDKINDVICLPVERLSRITPVLACQDRVLRVLQGSDVMYAVEVPGPPTVLALHNGNGGDSGEDLLFGTSDGKLALIQITTSKPVRKWEIQNEKKRGGILCIDSFDIVGDGVKDLLVGRDDGMVEVYSFDNANEPVLRFDQMLSESVTSIQGGCVGKDSYDEIVVSTYSGWVTGLTTEPIHKESGPGEELKINQEMQNKISSLRNELEHLQYKVLQERENYQQSSQSSKAKSAVPSFGINDKFTLNKDDASYSLILEVQTAIDNVLIQSDVPIDLLDVDKNSAVVSFSSCDSESNDNFLLATYRCQADTTRLELKIRSIEGQYGTLQAYVTPRIQPKTCQVRQYHIKPLSLHQRTHFIDHDRPMNTLTLTGQFSFAEVHSWVVFCLPEVPEKPPAGECVTFYFQNTFLDTQLESTYRKGEGVFKSDNISTISILKDVLSKEATKRKINLNISYEINEVSVKHTLKLIHPKLEYQLLLAKKVQLIDALKELQIHEGNTNFLIPEYHCILEEADHLQEEYKKQPAHLERLYG
# partner: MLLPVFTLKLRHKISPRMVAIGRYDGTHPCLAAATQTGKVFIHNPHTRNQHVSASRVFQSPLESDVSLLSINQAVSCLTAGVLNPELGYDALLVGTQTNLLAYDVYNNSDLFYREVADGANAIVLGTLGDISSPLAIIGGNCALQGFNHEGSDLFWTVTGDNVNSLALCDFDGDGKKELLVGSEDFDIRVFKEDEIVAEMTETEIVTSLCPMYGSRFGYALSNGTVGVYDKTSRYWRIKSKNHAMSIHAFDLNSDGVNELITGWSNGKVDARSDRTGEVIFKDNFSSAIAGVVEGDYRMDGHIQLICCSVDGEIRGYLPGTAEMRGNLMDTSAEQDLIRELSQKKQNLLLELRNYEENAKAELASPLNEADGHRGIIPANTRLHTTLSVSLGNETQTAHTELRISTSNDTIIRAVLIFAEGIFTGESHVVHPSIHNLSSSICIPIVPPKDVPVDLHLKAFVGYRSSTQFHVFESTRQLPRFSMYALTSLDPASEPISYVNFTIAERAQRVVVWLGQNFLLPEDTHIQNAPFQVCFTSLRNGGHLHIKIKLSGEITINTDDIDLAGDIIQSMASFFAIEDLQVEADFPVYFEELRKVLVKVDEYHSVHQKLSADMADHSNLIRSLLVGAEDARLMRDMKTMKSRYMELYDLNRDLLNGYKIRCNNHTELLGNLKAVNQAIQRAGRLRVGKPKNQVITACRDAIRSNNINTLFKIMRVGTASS
# Variants of: B1
# Settings: with bbs2_human BBS2, Q9BXC9
row,effect of a mutation on the interaction,Variant
1,with no effect,Q364A
2,with no effect,Q364K
3,with no effect,E659A
4,with no effect,S460K
5,with no effect,V400K
6,with no effect,L550A
7,with no effect,C540K
8,with no effect,E555A
9,disrupting interaction strength,G513D
10,with no effect,A443K
11,with no effect,S574A
12,with no effect,E614K
13,disrupting interaction strength,E614A
14,with no effect,Q657A
15,with no effect,N590A
16,with no effect,Y646A
17,with no effect,Y646K
18,with no effect,R504A
19,with no effect,L456K
20,with no effect,L456A
21,with no effect,Y558E
22,with no effect,Y671A
23,with no effect,K661E

row,effect of a mutation on the interaction,Variant
1,with no effect,T451E
2,with no effect,F565K
3,with no effect,Q410E
4,with no effect,D568K
5,with no effect,H487A
6,with no effect,S492E
7,with no effect,S344A
8,with no effect,E658A
9,with no effect,V602A
10,with no effect,Q401K
11,with no effect,P532E
12,with no effect,E631A
13,disrupting interaction strength,Q477A
14,with no effect,Q477E
15,with no effect,L454K
16,with no effect,D405E
17,with no effect,S343K
18,with no effect,P490A
19,with no effect,K384A
20,with no effect,P536K
21,disrupting interaction strength,I570L
22,with no effect,V426K
23,with no effect,C447K

row,effect of a mutation on the interaction,Variant
1,with no effect,L613A
2,with no effect,D419E
3,with no effect,D627K
4,with no effect,T444A
5,with no effect,T548K
6,with no effect,K621E
7,with no effect,K534E
8,with no effect,K341E
9,with no effect,E399A
10,with no effect,R475K
11,with no effect,Q633K
12,with no effect,Q624A
13,with no effect,D503E
14,with no effect,P414K
15,with no effect,P414E
16,with no effect,A425E
17,with no effect,I649A
18,with no effect,S367A
19,with no effect,I415E
20,with no effect,I415K
21,with no effect,V407E
22,with no effect,H498A
23,with no effect,E583A

row,effect of a mutation on the interaction,Variant
1,with no effect,Q336A
2,with no effect,P505K
3,with no effect,L656E
4,with no effect,Q514K
5,with no effect,A372K
6,with no effect,H521K
7,with no effect,F543E
8,with no effect,L617E
9,with no effect,K355A
10,with no effect,N547A
11,with no effect,D383A
12,with no effect,K560A
13,with no effect,L387A
14,with no effect,L387K
15,with no effect,I461K
16,with no effect,Q365E
17,with no effect,T467A
18,with no effect,T467K
19,with no effect,K479E
20,with no effect,K479A
21,with no effect,R669A
22,with no effect,S581E
23,with no effect,K662E

row,effect of a mutation on the interaction,Variant
1,with no effect,A620E
2,with no effect,A620K
3,disrupting interaction strength,F515K
4,with no effect,D450A
5,with no effect,D450K
6,with no effect,D450E
7,with no effect,C432E
8,with no effect,I409K
9,with no effect,I409A
10,with no effect,F549A
11,with no effect,W523E
12,disrupting interaction strength,W523A
13,with no effect,H655E
14,with no effect,T386E
15,with no effect,T386K
16,with no effect,K630A
17,with no effect,L345E
18,with no effect,L345A
19,disrupting interaction strength,G561S
20,with no effect,L619A
21,with no effect,Q464K
22,with no effect,V579A
23,with no effect,T572E

row,effect of a mutation on the interaction,Variant
1,with no effect,T572K
2,with no effect,L608E
3,with no effect,V525A
4,with no effect,V525E
5,with no effect,R559E
6,with no effect,R559A
7,with no effect,V524K
8,with no effect,G380E
9,with no effect,G380A
10,with no effect,I488K
11,with no effect,K588E
12,with no effect,C527A
13,with no effect,V483K
14,disrupting interaction strength,V356A
15,with no effect,L468A
16,with no effect,L468K
17,with no effect,L468E
18,with no effect,Y544E
19,with no effect,Y544K
20,with no effect,I626A
21,with no effect,G329K
22,with no effect,I589K
23,with no effect,T585A

row,effect of a mutation on the interaction,Variant
1,with no effect,F641E
2,with no effect,E530A
3,with no effect,L491A
4,disrupting interaction strength,L491P
5,with no effect,D654K
6,with no effect,V520E
7,with no effect,Q448A
8,with no effect,E361A
9,with no effect,Y354K
10,with no effect,N388E
11,with no effect,L642A
12,with no effect,V376E
13,with no effect,V376A
14,with no effect,E533A
15,with no effect,L618E
16,with no effect,Q339K
17,with no effect,I575E
18,with no effect,P328E
19,with no effect,T452E
20,with no effect,V420A
21,with no effect,H666K
22,with no effect,T542A
23,with no effect,T542K

row,effect of a mutation on the interaction,Variant
1,with no effect,L650K
2,with no effect,S424E
3,with no effect,R346E
4,with no effect,R346A
5,with no effect,K457A
6,with no effect,K457E
7,with no effect,A403E
8,with no effect,L418A
9,with no effect,P478E
10,with no effect,P478A
11,with no effect,L441A
12,with no effect,G563K
13,with no effect,L357E
14,with no effect,L357A
15,with no effect,R453E
16,disrupting interaction strength,G466E
17,disrupting interaction strength,G466Y
18,with no effect,L667E
19,with no effect,E599A
20,with no effect,P664A
21,with no effect,P664E
